Here are results for one molecule from paper PMC8683085, “Serine ADP-ribosylation marks nucleosomes for ALC1-dependent chromatin remodeling” (eLife, 2021).

Assay [1] concerns the target H2BS6/H3S10ADPr4 nucleosome (UniProt P68431 22-136; P62805 1-103, H3A21C, tetra-ADP-ribose on S6 | tetra-ADP-ribose on S10). As to the kind of experiment: cell-based or functional assay.
Another assay addresses T1, PARP1 SerADPr_(short) (UniProt P09874 1-1014, relatively short serine-linked ADP-ribose chains; sites not told).
T1 construct: PARP1, full-length construct, as m15; also called serine-auto-ADP-ribosylated PARP1 with relatively short chains; automodified PARP1
Nature of the assay: co-IP; purified components: 100 nM FLAG-ALC1, 50 nM unmodified or H3S10ADPr3 nucleosomes, 100 nM PARP1 (unmodified, SerADPr long or short); 100 mM KCl, 25 mM HEPES pH 7.9, 2 mM MgCl2, 5% glycerol, 0.1% NP-40, 1 mM DTT; anti-FLAG M2 magnetic resin; western blot. As to conditions: both partners purified.

The next assay deals with T2, PARP1 SerADPr_(long) (UniProt P09874 1-1014, long serine-linked ADP-ribose chains; a small population of aspartate- and/or glutamate-linked ADPr; sites not told).
T2 construct: PARP1, full-length construct, as m15; also called serine-auto-ADP-ribosylated PARP1 with long chains; automodified PARP1
Described as above. As to conditions: both partners purified.

T1 sequence (P09874 whole entry): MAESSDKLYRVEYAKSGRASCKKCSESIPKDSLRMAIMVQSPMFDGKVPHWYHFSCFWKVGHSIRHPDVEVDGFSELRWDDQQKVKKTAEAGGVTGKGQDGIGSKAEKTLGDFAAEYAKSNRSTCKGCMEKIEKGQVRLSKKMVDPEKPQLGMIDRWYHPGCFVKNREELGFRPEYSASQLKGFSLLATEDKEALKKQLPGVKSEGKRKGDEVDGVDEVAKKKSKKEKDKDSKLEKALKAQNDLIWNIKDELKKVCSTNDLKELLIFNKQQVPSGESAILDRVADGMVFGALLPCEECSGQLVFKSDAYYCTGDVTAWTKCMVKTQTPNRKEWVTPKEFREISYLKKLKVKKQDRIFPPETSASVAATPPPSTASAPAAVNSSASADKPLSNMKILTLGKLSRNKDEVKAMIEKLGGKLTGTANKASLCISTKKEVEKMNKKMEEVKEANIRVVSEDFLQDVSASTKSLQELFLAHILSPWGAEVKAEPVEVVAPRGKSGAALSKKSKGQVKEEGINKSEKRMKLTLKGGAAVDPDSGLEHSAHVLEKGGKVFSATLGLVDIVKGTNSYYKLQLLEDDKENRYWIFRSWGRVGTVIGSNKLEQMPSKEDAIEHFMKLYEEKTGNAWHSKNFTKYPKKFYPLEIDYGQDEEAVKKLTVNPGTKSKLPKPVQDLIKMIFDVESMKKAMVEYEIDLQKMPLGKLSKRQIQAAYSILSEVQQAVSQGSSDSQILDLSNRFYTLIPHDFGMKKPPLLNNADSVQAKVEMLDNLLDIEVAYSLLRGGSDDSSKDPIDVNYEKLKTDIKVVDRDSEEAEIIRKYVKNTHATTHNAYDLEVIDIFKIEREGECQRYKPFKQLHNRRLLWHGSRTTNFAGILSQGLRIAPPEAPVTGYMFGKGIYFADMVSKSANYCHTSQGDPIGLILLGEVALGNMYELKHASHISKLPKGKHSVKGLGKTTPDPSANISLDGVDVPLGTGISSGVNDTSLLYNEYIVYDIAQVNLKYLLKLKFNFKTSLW
T2 sequence (P09874 whole entry): as above

B1: ALC1 (full-length, 6xHis-1xFLAG-ALC1) (enzyme, UniProt Q86WJ1 1-897, looked up)
chain: MERAGATSRGGQAPGFLLRLHTEGRAEAARVQEQDLRQWGLTGIHLRSYQLEGVNWLAQRFHCQNGCILGDEMGLGKTCQTIALFIYLAGRLNDEGPFLILCPLSVLSNWKEEMQRFAPGLSCVTYAGDKEERACLQQDLKQESRFHVLLTTYEICLKDASFLKSFPWSVLVVDEAHRLKNQSSLLHKTLSEFSVVFSLLLTGTPIQNSLQELYSLLSFVEPDLFSKEEVGDFIQRYQDIEKESESASELHKLLQPFLLRRVKAEVATELPKKTEVVIYHGMSALQKKYYKAILMKDLDAFENETAKKVKLQNILSQLRKCVDHPYLFDGVEPEPFEVGDHLTEASGKLHLLDKLLAFLYSGGHRVLLFSQMTQMLDILQDYMDYRGYSYERVDGSVRGEERHLAIKNFGQQPIFVFLLSTRAGGVGMNLTAADTVIFVDSDFNPQNDLQAAARAHRIGQNKSVKVIRLIGRDTVEEIVYRKAASKLQLTNMIIEGGHFTLGAQKPAADADLQLSEILKFGLDKLLASEGSTMDEIDLESILGETKDGQWVSDALPAAEGGSRDQEEGKNHMYLFEGKDYSKEPSKEDRKSFEQLVNLQKTLLEKASQEGRSLRNKGSVLIPGLVEGSTKRKRVLSPEELEDRQKKRQEAAAKRRRLIEEKKRQKEEAEHKKKMAWWESNNYQSFCLPSEESEPEDLENGEESSAELDYQDPDATSLKYVSGDVTHPQAGAEDALIVHCVDDSGHWGRGGLFTALEKRSAEPRKIYELAGKMKDLSLGGVLLFPVDDKESRNKGQDLLALIVAQHRDRSNVLSGIKMAALEEGLKKIFLAAKKKKASVHLPRIGHATKGFNWYGTERLIRKHLAARGIPTYIYYFPRSKSAVLHSQSSSSSSRQLVP
notes: ALC1 (CHD1L), full-length gene synthesized by Twist Biosciences; also called FLAG-tagged ALC1; recombinant, full-length ALC1; source: Sf9 (baculovirus), purified (anti-FLAG M2 magnetic resin, FLAG peptide elution); not shown: FLAG, N-terminal, kept
Turning to B1, in assay [1], the “ALC1 remodeling rate constant relative to the unmodified nucleosome (REA assay)” value was approximately 370 fold. Besides, the binding result with PARP1 SerADPr_(short) and with PARP1 SerADPr_(long) was “binds” in each case.
